# Measurements taken from the DeepSol protein solubility set.
# Assay: soluble on expression in E. coli; label from the status in PepcDB or PDB records
row,Sequence,soluble on expression in E. coli
1,MSLPITLDKKLPAVDILKSENIFVMDDKRAIHQDIRPMSILILNLMPTKVATETQLLRLLANTPLQLSVDFLYMTSHHSKTTQAEHMKTFYKTFKDIKDNYYDGLIITGAPVETMPFEKVDYWEELCQVFQWSKTHVYSTLHLCWGAQAGLYYRYSVDKVQMTDKLSGIYLQKVNEQLSPLMRGFDDCFLSPHSRYTEVLLKDINNKTNLEILASGEKVGLSILASRDMREVYSFGHLEYDRETLDNEYKRDLKAGKSPKIPENYYQDDDVTTHPIMRWNLAAATFFSNWINYAVYQETPYRLEELEKDISFYGYLEGHHHHHH,soluble
2,MSLRASDDKALQYAIAEITEIATGFGLDFYPMRYEICPAEIIYTFGAYGMPTRFSHWSFGKQFFRMKLQYDLGLSKIYELVINSDPCYAFLLDTNSLIQNKLIVAHVLAHCDFFKNNIRFSNTKRDMVESMSATAERVKAYEHKYGKEEVETFLDAVLAIQEHIDPSLMRPKLAWSIDDLEEEEVEKKKASQYDDLWNLDNRNKKQERSNVRKKKKIPPQPEKDLLLFIEEYSRELEDWQRDILTMMREEMLYFWPQLETKIMNEGWASFWHQRILREMDLTSDEAIEFAKLNAGVVQPSKTSINPYYLGIKMFEDIEERYNNPTEEMKRRGVKPGSGRDKIFEVREIEWDVSFLRNYLNKDLVMREDMYLFQRQGKEYKVIDKEWEHVRDQLVNMRTNGGFPYLVVEDGDYLKNGELYIKHSYEGIELDLKYLEKVLPYLHQLWGRTVHMESIVESKGVVFSYDGKMVHRKYVEGHHHHHH,not soluble
3,MGSDKIHHHHHHMPVVDAAWEEWLSSNVARGCSPDSMIDAMVQAGFATDAARVAVHKTFGQNPANPAFAAAAATEAALAKAAPQTYQYDDPPVARGNLIRAYDRDVRVVMRCERPQVIVFADVLSPDECAEMIERSRHRLKRSTTVNPATGKEDVIRNRTSEGIWYQRGEDPFIERMDRRISSLMNWPVENGEGLQILHYGTTGEYRPHFDYFPPDQPGSAVHTAQGGQRVATLVIYLNDVPDGGETIFPEAGMSVAASQGGAVYFRYMNDRRQLDPLTLHGGAPVLAGDKWIMTKWMRERAYG,not soluble
4,MHWQTHTVFNQPIPLNNSNLYLSDGALCEAVTREGAGWDSDFLASIGQQLGTAESLELGRLANVNPPELLRYDAQGRRLDDVRFHPAWHLLMQALCTNRVHNLAWEEDARSGAFVARAARFMLHAQVEAGSLCPITMTFAATPLLLQMLPAPFQDWTTPLLSDRYDSHLLPGGQKRGLLIGMGMTEKQGGSDVMSNTTRAERLEDGSYRLVGHKWFFSVPQSDAHLVLAQTAGGLSCFFVPRFLPDGQRNAIRLERLKDKLGNRSNASCEVEFQDAIGWLLGLEGEGIRLILKMGGMTRFDCALGSHAMMRRAFSLAIYHAHQRHVFGNPLIQQPLMRHVLSRMALQLEGQTALLFRLARAWDRRADAKEALWARLFTPAAKFVICKRGMPFVAEAMEVLGGIGYCEESELPRLYREMPVNSIWEGSGNIMCLDVLRVLNKQAGVYDLLSEAFVEVKGQDRYFDRAVRRLQQQLRKPAEELGREITHQLFLLGCGAQMLKYASPPMAQAWCQVMLDTRGGVRLSEQIQNDLLLRATGGVCV,soluble
5,METLLLVQLFHELALKGKNRPFFLKRAKAHVRRALKGLGVALEGEWPMALLFRLPEEAWPEAKARLQDTLGVERFARVHRTPPDLEALKAALEKALEGQAFGSFRITAKRSDKAFPLTSPEIERALGAFVKGKTGAPVRLKGAEREFVVRVLPGAALLEVERHPGPGGLPPGVSGRVVALLSGGIDSPVAAYRLMRRGAEVVLVHFHPFPLLSGASREKAKALAERLARFQHRLRLHLVPFSEVQRHIIVEAPTAYRVVLYRRYMLRIAEAIAREEGALALCTGDSLGQVASQTLENLHAVNQAATLPVFRPLIGWDKEEIVAEAQRIGTYATSILPDEECCTLFAPKHPVTRARLEVVLETEARLPTEELLALALKEREVLTYTWPGKPLPEEPEGAFIMEHGPA,soluble
6,SVRVMQLTLGNSTITTQEAANSVVAYGRWPEYIKDSEANPVDQPTEPDVAACRFYTLDTVTWRKESRGWWWKLPDALKDMGLFGQNMFYHYLGRAGYTVHVQCNASKFHQGALGVFAVPEMCLAGDSTTHMFTKYENANPGEKGGEFKGSFTLDTNATNPARNFCPVDYLFGSGVLAGNAFVYPHQIINLRTNNCATLVLPYVNSLSIDSMTKHNNWGIAILPLAPLDFATESSTEIPITLTIAPMCCEFNGLRNITVPRTQ,soluble
7,MKSVIIVGAGIGGLCLAQGLAKAGIEFEVWEADAGPQVRGQGYRLRIDAMGQRALRQCLPPDLFELFRASCAVSGPARFVDPQLNPLPGRRPENWRENADAGEAGGDLSADRQVLRDILSHGLAPQIRWGRRARGFERGGDGIVVHCADGSEHGAALVVAADGLHSPLRRQWLPQAEPEAIGALNLYGKTPLDGIDPALLAGPTIVFADGWTLVVEPMRFRAAMSGLAARHAPDCRLSPTDDYVYWAMFGREACLGGSLSGEEDAAGWRRRIEAASGGLHPGLSDLLRRTAPEAVMGRAVRMAAGVPSWPPGRLTVLGDAIHAMSPAGGVGANTALADAAMLAVCLADGDVDRAVARYEADMRGRAERALVATRAGTERLLRRLLEHHHHHH,soluble
8,MCMSSQSYFKSVMYALVTGGTRGIGRAITEALLKEGYNVAVLYHGSEDKAKELREKGVLTVRCDVGDRNQVKKAKEEISNHFPRLDVLVNNAGIWYLMPFEQFDEEKYERMLRVNLNGTIYVTYEFLSLLKKSSAASIINIASNAGIGTAAEGTTFYAITKAGIIILTRRLAFELGKYGIRVNAVAPGWIETDMTLGNKSDEEKEKLREIFRNKTVLHTTGKPEDIANIVVFLASEKARYITGQVIVADGGRIDNLTHSV,soluble
9,MGHHHHHHSHMQHPQTHRQLKETLYETIIGYFDKGKMWEEAISLCKELAEQYEMEIFDYELLSQNLIQQAKFYESIMKILRPKPDYFAVGYYGQGFPSFLRNKVFIYRGKEYERREDFQMQLMTQFPNAEKMNTTSAPGDDVKNAPGQYIQCFTVQPVLDEHPRFKNKPVPDQIINFYKSNYVQRFHYSRPVRRGTVDPENEFASMWIERTSFVTAYKLPGILRWFEVVHMSQTTISPLENAIETMSTANEKILMMINQYQSDETLPINPLSMLLNGIVDPAVMGGFAKYEKAFFTEEYVRDHPEDQDKLTHLKDLIAWQIPFLGAGIKIHEKRVSDNLRPFHDRMEECFKNLKMKVEKEYGVREMPDFDD,soluble
10,MDAELFPRSRAQVAPDAVHVPDWADAGRQRRFLAACRDWARPPAGLRTVHTPGGGTMTSRQVCLGWHWYPYGYARTVVDGDGAPVKPLPDWLAELGRDAVSDALGPQAVPPVPYDIALINFYGADARMGMHRDSDEKSGAPVVSLSVGDTCVFRFGNARTRTRPYTDVELRSGDLFVFGGASRLAYHGVPRVYADTAPPELGLVGRLNITLRVSGFQDPSGE,not soluble
11,MGSDKIHHHHHHMANNFDLHAALTLATKPGPFVTMTLPVTGIPATDRTQFNSLLKQGKEQLEKVAPDRTWSAYAESFTPFEHGPLTNGSATGLLIMAGASDSYHYWLHTPVAATVTVTYQPNVLPILQAQDKTSDYDILLLGRDAFDLAQVRNGRPEMVNLPVDAPVTLEKALGSELRDRGRWQRSAGEHTQYSGTGSLDTAREADQRNYFMMVDAYVSQHYSNVDQVPLILVANASDQGNFRKFSQNAYLDHVVRVVQGPNLAAANQTLAALALSITEQRHQQATQIRRDAYAKVRQNQQVVQDLGPLATAAVQGQVAKLWLRDDASQPGHLTEKGTVMTATALSRQNNLYNDLALQVSRLGGQVEVLPADAMPTSNPVAAQLRLRETVAH,not soluble
12,MGSDKIHHHHHHMKNVNQELLNHVILHKDRIPHFHKDFPLILFWSHRSGCTTLANWFFFQIGLFNEAKKYHDFIHYYEFWVYKNNTNYIPELQNGLLTAEKAVCKLVRNPYTRAVSSFLLLADNPYAIPQWESIRQYLYNDKYSNRGISFKQFLYYVRALGPNSLTMDIHFSQQYVPGEENFIQHYIPLEDFNTQITKIEHTYDLVKSNLALLTNSDHHRAHKMMYTGSYAELSITDVAFPRFPTYESFYDEETMALVTEIYAQDFEMYPYTKGIF,not soluble
13,MAHHHHHHMGISVSHLLERLRTLFEPLEVVCALQLKCLLETRQLDYCNVSLNELQRAEAGLRSLLVDHPLDIEVGAQWEHLEDELQRLHVRFSVPVPTFRLLVRRSARALRSAVRALGWDGKIQRRLWQEEGEEPRDDGVQEPLRAFDAGGLSTCTVDEICNEGGVQDRSAAVFSAVAKLYHHRLALGAQSLVAAERLGPALGANVRAASRVPSLTLPNSAADPTHPRFKADLYAVSPDALSCTAARREAYAAS,not soluble
14,MNKKYPKINYIGNKEKIASWICDQLPSDVDTVADVFSGGCSFAYEAKKRGYRVITNDILAINYQIALALIENNHETLNDDDVAMIFSGSPHAGFMSQRYSEKFYFHDECQQLDLYRKNIGKLNNQYKRALAFTLMRRAMIRKMPYSRFTIPWEKVKQLRDEEYSYAKYGRRRAYHNESFQSHFLQNLDDYNQAVFNNGWRHHAFNQDIFDLLPNIQADAVYLDPPYTGTMNNYFGFYGLLDSYITSSIPKPFANHFMDKKQAVELFKRVINHLKPFKYWLLSYNNASYPNRDELEEMLGKNGRNVQILETPHVYKVTGKEKKQSHKEILFLVENT,not soluble
15,MKPRPQSDAVDNEGPTPLSKGRRHLAMRLDDAWLGFQTRLAIRRGRVETVIPYTGYGSTSWVRVLARIVRSDPRDAAGHTNPLQESMRGWRNFTSAPVAHASVQVTIDGTVHDVVADRGGVVDARIPVALDAGWHTITLRSGESETVEAPVEIVADDAVFGVVSDIDDTVMVTALPRPFLAAWNTFVLNEHARTPTPGMAVLYERIARTAPSAPVLYLSTGAWNVAPTLSRFLSRNLYPAGPKLLTDWGPTPDRWFRSGQEHKRTSLERLAEEFPNIKWLLVGDDGQHDEAIYSEFAQRHPASVRAIAIRQLSAGEAVLAGGRSKSGGQPTPGVPWIYAPDGAGMSAQLEELGIIRLEHHHHHH,not soluble
16,MMLENKSINELYSIKLIEEADTKRLIKFMNKYMNSKHEFEMSKRIFLSDQILNQECYNDINIRSSIYNFYEEYIVMEKEGKIAALIALDINRNNLSKVLNLNLIICEEGEMSRLRDMFIFATEILPEYSIVEPTKIRTYIRENGIFTEYWKNKLMEAGFSHEVTRENEVGNGVALTTMIIKMK,not soluble
17,MGSDKIHHHHHHAGTQTAQTQALDSDGIPTGGEWITMFDGKTLNGWRGYCRQDVPLGWVVEDGSITYKGSDNKADTGFGDLIYDKKFKNFVFEIEWKIDKAGNSGIFYTAQEIEGTPIYYSSPEYQLLDNENMPDAWEGCDGNRQAGAVYDMIMPDPQPVKPYGNWNKTRIVVYNQRVIHYMNDVKILEFQFGTPVWRALVDHSKFSKFSTSPEKCPEAYDLMLQCGKQPGYIGMQDHGYGVCFRNIRIKEL,not soluble
18,MGSDKIHHHHHHKTSSTQLPTIDAISSVADLTNAVNGVYEQQATEVGSYGAEFTLLADLRSGDFQSISTVNHAGPMYRYQTGKNDEMVYSFYKLFYNSLARLNNVLAAAENLEGADVDILKGELYAMRALYHFDLARVFAKLPSTTDMNDLGIVLSTEVYPTDYIGTRATLQQTYDQILKDIETALPLLSKDKQTGHINYWGALAIRARAYLYLEKNKEALADCKEIIASSPYKLYTRDEYIGAWDKEGTNEAIFEILVTPNYNAQRNSIGYFTHASGYGECAATESFLEELAKHPGDIRTELFAKETDNGYDGTYPQKYKGRDGQIYVNNPKVVRLSEVYLIAAEAALKAGDTSAAAGYMNTLRKNRIENYTDVASITLDDILLERRLELFTEGHTAWDAWRNGKSVNNKFVGEVKPGDYRTIMAIPIGEITVSRGQLIQNPGY,not soluble
